Drawing on the Human Domainome abundance scans (Beltran et al. 2025), this text covers abundance fitness for 34 variants.

± gives the uncertainty stated by the source.

The chains are these.
B1: Protein C-ets-1, residues 55 to 135; numbered along this chain, P14921 (parent)
chain: GFTKEQQRLGIPKDPRQWTETHVRDWVMWAVNEFSLKGVDFQKFCMNGAALCALGKDCFLELAPDFVGDILWEHLEILQKE

The variants in this data set derive from B1. In words: abundance fitness (aPCA) (normalised: wild type 0, dead -1); higher = more abundant; growth selection in yeast, the domain comes from the species named. To be noted: Homo sapiens.
Take GFTKEQQRLGIFKDPRQWTETHVRDWVMWAVNEFSLKGVDFQKFCMNGAALCALGKDCFLELAPDFVGDILWEHLEILQKE [P12F]: the abundance fitness is -0.606 ± 0.095.
For GFTKEQQRLGIPKFPRQWTETHVRDWVMWAVNEFSLKGVDFQKFCMNGAALCALGKDCFLELAPDFVGDILWEHLEILQKE [D14F], the abundance fitness was -0.443 ± 0.052.
GFTKEQQRLGIPKLPRQWTETHVRDWVMWAVNEFSLKGVDFQKFCMNGAALCALGKDCFLELAPDFVGDILWEHLEILQKE [D14L]: the abundance fitness was -0.552 ± 0.033.
Next, WFTKEQQRLGIPKDPRQWTETHVRDWVMWAVNEFSLKGVDFQKFCMNGAALCALGKDCFLELAPDFVGDILWEHLEILQKE [G1W]: -0.248 ± 0.083.
For GFTKEQQYLGIPKDPRQWTETHVRDWVMWAVNEFSLKGVDFQKFCMNGAALCALGKDCFLELAPDFVGDILWEHLEILQKE [R8Y], the abundance fitness is -0.212 ± 0.066.
Turning to GFTKEQQRLGIPKDPRQWTETHVRDWVMWAVNEFSLKGVDFQKFCMNGAALCALMKDCFLELAPDFVGDILWEHLEILQKE [G55M], the abundance fitness is -0.433 ± 0.051.
Next, GFTKEQQRLGIPKDPRQWTETHVRDWVMWAVNEFSLKGVDFQKFCMNGAALCALDKDCFLELAPDFVGDILWEHLEILQKE [G55D]: 0.061 ± 0.053.
GFTKEQQRLGIPKDPRQWTETHVRDWVMWAVNEFSLKGVDFQKFCMNGAALCALGKDCFLELAPDFCGDILWEHLEILQKE [V67C]: the abundance fitness was -0.04 ± 0.095.
Next, GFTKEQQRLGIPKDPRQWTETHVRDWVMWAVNEFSLKGVDFQKFCMNGAALCALGKDCFLELAPDFHGDILWEHLEILQKE [V67H]: -0.284 ± 0.14.
For GFTKRQQRLGIPKDPRQWTETHVRDWVMWAVNEFSLKGVDFQKFCMNGAALCALGKDCFLELAPDFVGDILWEHLEILQKE [E5R], the abundance fitness was -0.132 ± 0.035.
As to GFTKEQQRLGIPKDPRQWTETHVRDWVMWAVNEDSLKGVDFQKFCMNGAALCALGKDCFLELAPDFVGDILWEHLEILQKE [F34D], the abundance fitness is -0.623 ± 0.068.
As for GFTKEQQRLGIPKDPRQWTETHVRDWVMWAVNEFSLKVVDFQKFCMNGAALCALGKDCFLELAPDFVGDILWEHLEILQKE [G38V], the abundance fitness was -0.476 ± 0.034.
GFTKEQQRLGIPKDPRQWTETHVRDWVMWAVNEFSLKGVDFQKFCMNGAALCALGKGCFLELAPDFVGDILWEHLEILQKE [D57G]: the abundance fitness is -0.083 ± 0.028.
The result for GETKEQQRLGIPKDPRQWTETHVRDWVMWAVNEFSLKGVDFQKFCMNGAALCALGKDCFLELAPDFVGDILWEHLEILQKE [F2E] reads -0.345 ± 0.1.
For GTTKEQQRLGIPKDPRQWTETHVRDWVMWAVNEFSLKGVDFQKFCMNGAALCALGKDCFLELAPDFVGDILWEHLEILQKE [F2T], the abundance fitness is -0.23 ± 0.12.
Next, GFTKEQQRLGIPKDPRQTTETHVRDWVMWAVNEFSLKGVDFQKFCMNGAALCALGKDCFLELAPDFVGDILWEHLEILQKE [W18T]: -0.999 ± 0.13; GFTKEQQRLGIPKDPRQGTETHVRDWVMWAVNEFSLKGVDFQKFCMNGAALCALGKDCFLELAPDFVGDILWEHLEILQKE [W18G]: -0.992 ± 0.074; GFTKEQQRLGIPKDPRQWTETHVRDWVMWAVNEFSLKGVDFQKFCMNGAALCALGGDCFLELAPDFVGDILWEHLEILQKE [K56G]: -0.851 ± 0.076.
On to GFTKEQQRLGIPKDPRQWTETHVRDNVMWAVNEFSLKGVDFQKFCMNGAALCALGKDCFLELAPDFVGDILWEHLEILQKE [W26N], for which the abundance fitness is -0.865 ± 0.096.
Next, GFTKEQQRLGIPKDPRQWTETHVRDGVMWAVNEFSLKGVDFQKFCMNGAALCALGKDCFLELAPDFVGDILWEHLEILQKE [W26G]: -0.895 ± 0.038; GFTKEQQRLGIPKDPRQWTETHVRDIVMWAVNEFSLKGVDFQKFCMNGAALCALGKDCFLELAPDFVGDILWEHLEILQKE [W26I]: -1.1 ± 0.15.
On to GFTKEQQRLGIPKDPRQWTETHVRDWVMWAVNEFSLKGVSFQKFCMNGAALCALGKDCFLELAPDFVGDILWEHLEILQKE [D40S], for which the abundance fitness is -0.164 ± 0.037.
GFTKEQQRLGIPKDPRQWTETHVRDWVMWAVNEFSLKGVDFQKFCMNGHALCALGKDCFLELAPDFVGDILWEHLEILQKE [A49H]: the abundance fitness was -0.058 ± 0.048.
The result for GFTKEQQRLGIPKDPRQWTETHVRDWVMWAVNEFSLTGVDFQKFCMNGAALCALGKDCFLELAPDFVGDILWEHLEILQKE [K37T] reads -0.027 ± 0.047.
As for GFTKEQQRLGIPKDPRQWTETHVRDWVMWAVNEFSLQGVDFQKFCMNGAALCALGKDCFLELAPDFVGDILWEHLEILQKE [K37Q], the abundance fitness came out at 0.005 ± 0.042.
Next, GFTKEQPRLGIPKDPRQWTETHVRDWVMWAVNEFSLKGVDFQKFCMNGAALCALGKDCFLELAPDFVGDILWEHLEILQKE [Q7P]: -0.294 ± 0.048; GFTKEQQRLGIPKDPRQWTETHVRVWVMWAVNEFSLKGVDFQKFCMNGAALCALGKDCFLELAPDFVGDILWEHLEILQKE [D25V]: -0.061 ± 0.026.
Next, GFTKEQQRLGIPKDPRQWTETHVRDWVMWAENEFSLKGVDFQKFCMNGAALCALGKDCFLELAPDFVGDILWEHLEILQKE [V31E]: -0.19 ± 0.053; GFTKEQQRLGIPKDPRQWTETHVRDWVMWAVNEFSLKGVDFQKFCMNGAALCALGKDCFLELAPDFVGDILWEHLEILQNE [K80N]: 0.029 ± 0.19.
Regarding GFYKEQQRLGIPKDPRQWTETHVRDWVMWAVNEFSLKGVDFQKFCMNGAALCALGKDCFLELAPDFVGDILWEHLEILQKE [T3Y], the abundance fitness is -0.206 ± 0.1.
For GFTKEQQRLGIPKDPRQWTETHVRDWVMWAVNLFSLKGVDFQKFCMNGAALCALGKDCFLELAPDFVGDILWEHLEILQKE [E33L], the abundance fitness was -0.503 ± 0.038.
The result for GFTKEQQRLGIPKDPRQWTETHVRDWVMWAVNTFSLKGVDFQKFCMNGAALCALGKDCFLELAPDFVGDILWEHLEILQKE [E33T] reads -0.063 ± 0.043; that for GFTKEQQRLGLPKDPRQWTETHVRDWVMWAVNEFSLKGVDFQKFCMNGAALCALGKDCFLELAPDFVGDILWEHLEILQKE [I11L], -0.013 ± 0.026.
The result for GFTKEQQRLGIPKDPRQWTETHVRDWVMWAVNEFSLKGVDFQKFCMNGAALCALGKDCFLENAPDFVGDILWEHLEILQKE [L62N] reads -0.419 ± 0.12.
